From the Human Domainome abundance scans (Beltran et al. 2025)

B1: Myocardin-related transcription factor A, residues 341 to 383; numbered along this chain, Q969V6 (parent)
chain: GALPANLDDMKVAELKQELKLRSLPVSGTKTELIERLRAYQDQ
B2: Tumor protein 63, residues 545 to 610; numbered along this chain, Q9H3D4 (parent)
chain: TDCSIVSFLARLGCSSCLDYFTTQGLTTIYQIEHYSMDDLASLKIPEQFRHAIWKGILDHRQLHEF

Variants of: B1
Assay: abundance fitness (aPCA) (normalised: wild type 0, dead -1); higher = more abundant; growth selection in yeast, the domain comes from the species named
Details: Homo sapiens

Abundance fitness: each site, then its substitutions
N6: R -0.048, L -0.124, V -0.127, D -0.189, A -0.229, Q -0.212, E -0.007, P -1.5, K 0.157, H -0.661, G 0.044, F -0.431, M 0.135, W -0.76
L3: N 0.128, C 0.016, T -0.598, W -0.122, R -0.021, D 0.512, S -0.031, I 0.144, F 0.243, G 0.028, K -0.171, H 0.426, Y 0.502, V 0.073, E -0.019, A -0.431, M -0.022
A5: W -0.655, K 0.109, P -0.845, N 0.215, T 0.185, S -0.107, I 0.249, Q -0.025, E 0.216, R 0.064, M 0.292, F -0.012, L 0.045, G 0.081
D9: M 0.019, P -0.416, L -0.026, T 0.243, V 0.153, C 0.014, G 0.13, K 0.404, W -0.139, S 0.159, A 0.203, E 0.273, N 0, Q 0.085, R 0.135
K20: D -0.061, E 0.145, C 0.309, A -0.003
D8: K -0.018, E 0.261, A 0.19, S -0.124, W 0.185, Q 0.146, C 0.176, G 0.183, N -0.009, T -0.129, M -0.125, R 0.046, V 0.048
E14: H 0.136, T -0.134, F -0.3, A -0.079, Y -0.147, C -0.311, L -0.355, W -0.314, R -0.169, Q -0.063, D -0.266, G -0.165, S -0.056, P -0.656, K -0.215, V -0.127, M 0.022
L19: A -0.048, H -0.852, R -0.812, E -0.55, K -0.8, C -0.083, M 0.178, W -0.911, V -0.286, T -0.391, Q -0.408, S -0.237, G -0.536, D -0.621
L15: G -0.558, N -0.628, I 0.119, V -0.092, A -0.336, Q -0.662, K -0.508, H -0.621, W -1.38, R -0.831, D -0.369, C -0.999, E -0.604, M -0.481, F -0.466, T -0.403
V12: L 0.164, W -0.374, F -0.037, E 0.098, I -0.177, Q -0.552, S -0.336, C -0.212, D -0.363, R -0.177, M 0.199, Y -0.585, G -0.218, A -0.029, N -0.647
E18: W -0.606, M -0.274, T -0.5, L -0.35, R -0.593, K -0.365, H -0.432, P -1.33, S -0.28, V -0.15, Q -0.292, G -0.701, I -0.906, C -0.2, A -0.007
Q17: S -0.036, W -0.595, C -0.593, E 0.048, L -0.306, A 0.015, V -0.207, M 0.079, K -0.283, R -0.049, T -0.134, F -0.234, D -0.247, G -0.153, Y -0.263, P -0.794
K11: Y -0.799, S -0.029, F -0.502, H -0.154, R -0.079, W -0.635, E 0.047, V -0.055, L -0.197, A 0.132, Q -0.161, C -0.126, T -0.161, M -0.275, P -0.166, G -0.054, D -0.045
K16: Y -0.131, T -0.036, Q 0.186, R -0.159, H 0.123, S 0.006, L -0.408, M 0.169, N -0.384, V -0.143, P -0.587, D -0.714, E -0.052
M10: C -0.441, P -0.531, A -0.104, V -0.872, W -0.41, Y -0.068, I -0.302, N -0.425, T -0.568, E -0.979, L -0.222, G -0.839, K -0.151, R -0.537, D -0.894, S -0.256, Q -0.434
A2: G 0.035, F 0.024, K 0.588, D 0.26, R 0.034, C -0.077, S 0.209, E 0.136, T 0.161, P -0.041, W -0.145, M 0.433, L 0.208, Q 0.34
G1: D -0.587, R -0.165, V -0.384, E -0.303, Q -0.306, S -0.438, A -0.918, C -0.605, N -0.205
P4: S 0.245, W 0.057, K 0.17, Q 0.293, E 0.349, H 0.093, T 0.243, D 0.213, Y 0.29, G 0.217, F -0.263, C 0.211, V 0.29, R 0.219, A 0.079, I 0.301, M 0.196, L 0.322
L7: H -0.87, D -1.17, A -0.097, R -0.614, Q -0.763, W -0.429, C -0.157, G -0.305, E -0.924, T -0.136, V -0.199, S -0.47

Variants of: B2
Assay: as above
Details: Homo sapiens

Abundance fitness of substitutions, site by site:
F66: Y 0.044, M 0.028, P 0.086, I -0.011, E -0.678, A 0.05, H 0.027, G -0.214, C 0.033, D -0.119, R -0.013, S -0.019, L -0.022, V 0.071
H64: F -0.064, G -0.035, S 0.016, R -0.019, I -0.061, V -0.019, T 0.011, W -0.075, D -0.028, Q 0.029, P -0.02, A -0.002, N -0.007, E 0.034, K -0.018
Q62: W -0.144, Y -0.083
E65: N -0.027, D 0.081, I -0.099, H -0.072, A 0.002, C -0.023, M -0.089, R -0.065, L -0.08, V -0.093, P -0.082, K 0.002, Y -0.184, Q 0.113, T -0.049
L63: P -0.008, V -0.043, F -0.105, E 0.009, Q -0.016, K -0.004, R -0.045, I -0.034, W -0.054, D 0.004, G -0.016, S 0.005, T -0.006, N -0.04, M 0.025, C -0.01, Y -0.029, A 0.029
